Measured values reported in patent publication US20110038894A1 (NATIONAL HEALTH RESEARCH INSTITUTES, published 2011).

B1: TAL6 peptide No. 6 of Table 1, MLLPAFVFI (peptide)
peptide: MLLPAFVFI
notes: also called TAL6 60-68
B2: TAL6 peptide No. 14 of Table 1, ALGGIEFIL (peptide)
peptide: ALGGIEFIL
notes: also called TAL6 168-176
B3: TAL6 peptide No. 15 of Table 1, CLIQVINGV (peptide)
peptide: CLIQVINGV
notes: also called TAL6 177-185
B4: TAL6 peptide No. 1 of Table 1, CIGHSLVGL (peptide)
peptide: CIGHSLVGL
notes: also called TAL6 9-17
B5: TAL6 peptide No. 5 of Table 1, LLMLLPAFV (peptide)
peptide: LLMLLPAFV
notes: also called TAL6 58-66
B6: TAL6 peptide No. 3 of Table 1, ALLCIAANI (peptide)
peptide: ALLCIAANI
notes: also called TAL6 18-26
B7: TAL6 peptide No. 2 of Table 1, SLVGLALLC (peptide)
peptide: SLVGLALLC
notes: also called TAL6 13-21
B8: TAL6 peptide No. 10 of Table 1, GLAEGPLCL (peptide)
peptide: GLAEGPLCL
notes: also called TAL6 114-122
B9: TAL6 peptide No. 16 of Table 1, VINGVLGGI (peptide)
peptide: VINGVLGGI
notes: also called TAL6 181-189
B10: TAL6 peptide No. 4 of Table 1, IVGGGLLML (peptide)
peptide: IVGGGLLML
notes: also called TAL6 53-61
B11: TAL6 peptide No. 12 of Table 1, SLFSILLAL (peptide)
peptide: SLFSILLAL
notes: also called TAL6 161-169
B12: TAL6 peptide No. 11 of Table 1, HIVEWNVSL (peptide)
peptide: HIVEWNVSL
notes: also called TAL6 154-162
B13: TAL6 peptide No. 13 of Table 1, SILLALGGI (peptide)
peptide: SILLALGGI
notes: also called TAL6 164-172
B14: TAL6 peptide No. 8 of Table 1, MLSSVLAAL (peptide)
peptide: MLSSVLAAL
notes: also called TAL6 90-98
B15: TAL6 peptide No. 9 of Table 1, SVLAALIGI (peptide)
peptide: SVLAALIGI
notes: also called TAL6 93-101
B16: TAL6 peptide No. 7 of Table 1, AMLSSVLAA (peptide)
peptide: AMLSSVLAA
notes: also called TAL6 89-97

Target: His-tag fused human HLA-A2 heavy chain (His-HLA-A2) with His-Tag fused human β2-microglobulin (His-β2) (human)
Experiment: MHC-peptide complex formation assay: refolding of His-HLA-A2, His-β2m and peptide, sandwich ELISA (W6/32 capture, anti-β2m detection), relative to positive control peptide

Binder | Relative binding (%)
B1 | 155
B2 | 113
B3 | 26.3
B4 | 93.3
B5 | 134
B6 | 53.6
B7 | 126
B8 | 72.4
B9 | 59.1
B10 | 43.4
B11 | 42.6
B12 | 91.1
B13 | 51.8
B14 | 163
B15 | 158
B16 | 115
